Patent US20240241109A1 (NATIONAL JEWISH HEALTH, published 2024)
Read-outs that look alike come from different tables or passages of the source.

What was measured:
[1] = molecular target: T1, wildtype SARS-COV-2 spike receptor binding domain (RBD) (SARS-COV-2 (wildtype), UniProt P0DTC2 320-541); assay: SPR (Biacore)
[2] = molecular target: T1, wildtype SARS-COV-2 spike receptor …

B1: Etesevimab (LY-CoV016) (antibody, V domains shown)
VH: EVQLVESGGGLVQPGGSLRLSCAASGFTVSSNYMSWVRQAPGKGLEWVSVIYSGGSTFYADSVKGRFTISRDNSMNTLFLQMNSLRAEDTAVYYCARVLPMYGDYLDYWGQGTLVTVSS
VL: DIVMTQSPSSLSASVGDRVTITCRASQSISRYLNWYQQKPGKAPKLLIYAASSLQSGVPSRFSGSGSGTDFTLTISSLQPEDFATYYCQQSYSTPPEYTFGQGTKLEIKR
- Kd [1]: 6.8 nM
- Kd [2]: 6.83 nM
- koff [2]: 0.00988 s⁻¹
- kon [2]: 1.46e+06 M⁻¹ s⁻¹
